# T1: RIG-I (UniProt O95786 1-925)
# T1 sequence: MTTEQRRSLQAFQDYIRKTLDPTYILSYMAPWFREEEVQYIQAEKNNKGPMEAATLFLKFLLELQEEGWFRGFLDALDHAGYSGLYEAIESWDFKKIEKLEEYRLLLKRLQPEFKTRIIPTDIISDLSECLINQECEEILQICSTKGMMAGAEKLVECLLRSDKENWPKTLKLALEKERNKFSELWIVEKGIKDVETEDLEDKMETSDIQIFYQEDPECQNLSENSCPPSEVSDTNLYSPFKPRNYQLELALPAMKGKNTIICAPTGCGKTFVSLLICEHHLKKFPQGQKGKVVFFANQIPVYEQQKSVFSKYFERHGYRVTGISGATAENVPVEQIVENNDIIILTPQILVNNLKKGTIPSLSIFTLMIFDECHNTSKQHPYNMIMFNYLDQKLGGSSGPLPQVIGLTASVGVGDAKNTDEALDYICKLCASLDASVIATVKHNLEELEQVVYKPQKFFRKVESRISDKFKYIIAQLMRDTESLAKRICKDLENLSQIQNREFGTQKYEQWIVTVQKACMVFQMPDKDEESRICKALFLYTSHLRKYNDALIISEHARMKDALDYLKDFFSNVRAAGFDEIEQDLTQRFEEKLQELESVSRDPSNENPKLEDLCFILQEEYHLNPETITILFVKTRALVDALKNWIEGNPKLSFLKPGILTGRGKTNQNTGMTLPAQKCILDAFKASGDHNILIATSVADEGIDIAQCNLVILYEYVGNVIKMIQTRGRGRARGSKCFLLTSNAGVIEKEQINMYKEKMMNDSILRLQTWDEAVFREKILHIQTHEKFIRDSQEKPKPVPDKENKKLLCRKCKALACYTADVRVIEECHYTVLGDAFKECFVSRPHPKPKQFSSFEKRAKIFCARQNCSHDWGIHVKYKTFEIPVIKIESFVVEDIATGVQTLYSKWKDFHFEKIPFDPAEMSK
# T2: LGP2 (UniProt Q96C10 1-678)
# T2 sequence: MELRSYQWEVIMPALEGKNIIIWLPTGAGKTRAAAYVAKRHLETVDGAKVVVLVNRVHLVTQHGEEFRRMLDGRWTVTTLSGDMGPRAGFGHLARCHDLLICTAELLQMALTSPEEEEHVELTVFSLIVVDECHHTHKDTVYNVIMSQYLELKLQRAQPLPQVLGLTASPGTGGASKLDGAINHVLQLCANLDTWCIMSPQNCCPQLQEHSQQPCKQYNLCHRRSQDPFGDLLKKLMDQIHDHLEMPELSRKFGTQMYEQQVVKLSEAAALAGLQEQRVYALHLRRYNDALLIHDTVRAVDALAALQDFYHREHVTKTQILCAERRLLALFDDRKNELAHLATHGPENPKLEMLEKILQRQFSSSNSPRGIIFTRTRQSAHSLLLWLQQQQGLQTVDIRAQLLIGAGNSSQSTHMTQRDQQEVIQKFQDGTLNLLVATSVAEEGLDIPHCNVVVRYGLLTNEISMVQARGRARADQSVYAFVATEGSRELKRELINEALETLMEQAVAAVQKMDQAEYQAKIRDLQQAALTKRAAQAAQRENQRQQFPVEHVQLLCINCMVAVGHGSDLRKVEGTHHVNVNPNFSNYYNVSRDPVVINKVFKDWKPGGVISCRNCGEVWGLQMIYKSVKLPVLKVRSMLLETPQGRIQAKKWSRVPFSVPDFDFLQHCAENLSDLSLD
# T3: MDA5 (UniProt Q9BYX4 1-1025)
# T3 sequence: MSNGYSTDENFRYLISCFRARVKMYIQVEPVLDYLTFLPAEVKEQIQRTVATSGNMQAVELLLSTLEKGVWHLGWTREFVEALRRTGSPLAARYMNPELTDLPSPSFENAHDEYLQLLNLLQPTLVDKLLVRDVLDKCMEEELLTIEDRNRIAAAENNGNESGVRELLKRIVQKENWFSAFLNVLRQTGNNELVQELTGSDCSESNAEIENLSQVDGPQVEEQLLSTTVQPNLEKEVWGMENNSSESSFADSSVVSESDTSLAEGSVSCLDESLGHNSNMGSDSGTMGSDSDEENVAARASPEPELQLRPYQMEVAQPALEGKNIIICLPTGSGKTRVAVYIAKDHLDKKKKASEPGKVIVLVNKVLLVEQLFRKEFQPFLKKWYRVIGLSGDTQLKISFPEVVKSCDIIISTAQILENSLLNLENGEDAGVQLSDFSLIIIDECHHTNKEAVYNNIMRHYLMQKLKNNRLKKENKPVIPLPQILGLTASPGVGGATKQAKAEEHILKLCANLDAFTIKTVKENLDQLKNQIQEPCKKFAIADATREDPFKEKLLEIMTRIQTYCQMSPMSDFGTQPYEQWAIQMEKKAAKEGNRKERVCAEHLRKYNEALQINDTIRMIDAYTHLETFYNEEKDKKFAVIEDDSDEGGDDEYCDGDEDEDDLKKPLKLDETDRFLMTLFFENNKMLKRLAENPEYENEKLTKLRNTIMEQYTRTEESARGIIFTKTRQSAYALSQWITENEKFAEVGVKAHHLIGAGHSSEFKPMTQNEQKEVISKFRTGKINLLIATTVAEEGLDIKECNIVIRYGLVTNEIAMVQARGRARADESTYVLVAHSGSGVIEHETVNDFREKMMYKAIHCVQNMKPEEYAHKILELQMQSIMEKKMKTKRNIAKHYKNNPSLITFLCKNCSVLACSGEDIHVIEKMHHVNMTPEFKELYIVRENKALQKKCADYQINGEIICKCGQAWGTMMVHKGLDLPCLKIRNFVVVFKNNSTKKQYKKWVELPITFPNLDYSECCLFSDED
# B1: siLuc-36 (dsRNA)
# RNA 1: UCUUCCAGCGGAUAGAAUGGC
# RNA 2: CAUUCUAUCCGCUGGAAGAUG
# Columns and labels:
# Experiment in all cases: EMSA; 3 uM protein, 0.5 nM siRNA, 1.5 mM Mg2+; 20 mM Tris pH 8.0, 1.5 mM MgCl2, 50 mM NaCl, 1.5 mM DTT, 100 ng/uL sonicated salmon sperm DNA, 5% glycerol, 0.4 U/mL RNasin; 30 min on ice; 9% PAGE in 0.25x TBE
# Details in all cases: protein: recombinant; label: 5'-32P on guide strand; siRNA duplex 21-nt strands, 19 bp, 3' overhangs 2 nt on both strands
# [1] = biological target: T1, RIG-I
# [2] = biological target: T2, LGP2
# [3] = biological target: T3, MDA5
binder,measurement,setting,value
B1,binding result,[1],binds
same,binding result,[2],binds
same,binding result,[3],no binding

# Source: article PMC6210652, “Virus Sensor RIG-I Represses RNA Interference by Interacting with TRBP through LGP2 in Mammalian Cells”
